Square brackets hold non-standard residues; d marks the D form. Ends that are not written are not given here.
Molecular target: Human recombinant melanocortin MC1 receptor (human) (UniProt Q01726)
Assay: radioligand competition, displacement of [125I]NDP-alpha-MSH from human MC1R (CHO-K1), Example 7

Sequence of Human recombinant melanocortin MC1 receptor (human) (Q01726 whole entry): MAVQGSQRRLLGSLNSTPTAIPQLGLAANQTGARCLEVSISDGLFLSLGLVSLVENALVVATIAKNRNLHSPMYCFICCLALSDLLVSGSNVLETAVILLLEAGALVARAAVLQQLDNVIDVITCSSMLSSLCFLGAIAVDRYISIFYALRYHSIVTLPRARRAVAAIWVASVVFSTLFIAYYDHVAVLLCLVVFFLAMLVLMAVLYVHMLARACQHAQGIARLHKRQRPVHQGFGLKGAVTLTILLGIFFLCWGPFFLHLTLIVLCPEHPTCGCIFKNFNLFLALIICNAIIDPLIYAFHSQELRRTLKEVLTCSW

B1: SEQ ID NO: 35 (peptide)
peptide: MV[dF][dR][dW]FKPV-NH2
modifications: N-terminus assumed
SMILES: CSCC[C@H](N)C(=O)N[C@H](C(=O)N[C@H](Cc1ccccc1)C(=O)N[C@H](CCCNC(=N)N)C(=O)N[C@H](Cc1c[nH]c2ccccc12)C(=O)N[C@@H](Cc1ccccc1)C(=O)N[C@@H](CCCCN)C(=O)N1CCC[C@H]1C(=O)N[C@H](C(N)=O)C(C)C)C(C)C
- IC50: > 500 nM

B2: SEQ ID NO: 40 (peptide)
peptide: A[dL][dF]R[dW]FKPV-NH2
modifications: N-terminus assumed
SMILES: CC(C)C[C@@H](NC(=O)[C@H](C)N)C(=O)N[C@H](Cc1ccccc1)C(=O)N[C@@H](CCCNC(=N)N)C(=O)N[C@H](Cc1c[nH]c2ccccc12)C(=O)N[C@@H](Cc1ccccc1)C(=O)N[C@@H](CCCCN)C(=O)N1CCC[C@H]1C(=O)N[C@H](C(N)=O)C(C)C
- IC50: > 500 nM

Reference: patent US20250026787A1, “PEPTIDES AND METHODS FOR REDUCING SKIN PIGMENTATION” (Glo Pharma, Inc., priority 2021, published 2025)
